Patent US20130209489A1 (Amgen, published 2013)

Key:
Test in all cases: Biacore SPR, ligand flowed over immobilized antibody
GDF3 = target: T1, GDF3 (UniProt Q9NR23 251-364)
T1 sequence (looked up): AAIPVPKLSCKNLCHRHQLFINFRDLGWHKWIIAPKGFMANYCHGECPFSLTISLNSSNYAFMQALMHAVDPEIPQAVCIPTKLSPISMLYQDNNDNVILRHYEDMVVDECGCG
Method: (§1) Binding specificity analysis was carried out for 12A5-5 using Biacore™, a label-free surface plasmon resonance (SPR) based technology for studying biomolecular interactions in real time (GE Healthcare, Chalfont St. Giles, UK). 12A5-5, and ActRIIB/Fc were made in house, TGFbetaR11/Fc and BMPR-1A/Fc were from R & D Systems (Minneapolis, Minn.). […] Ten nanomolar of each of the ligands was flowed over immobilized high density antibody and receptor surfaces. Binding of Myostatin, GDF11, GDF3, Activin A, Activin AB, Activin AC, TGF-beta1, BMP4, BMP9, and BMP10 to their corresponding receptors was tested and used as control to normalize the signals of the ligands binding to 12A5-5 and the other receptors.

Activin A = target: T2, Activin A (UniProt P08476 311-426)
T2 sequence (looked up): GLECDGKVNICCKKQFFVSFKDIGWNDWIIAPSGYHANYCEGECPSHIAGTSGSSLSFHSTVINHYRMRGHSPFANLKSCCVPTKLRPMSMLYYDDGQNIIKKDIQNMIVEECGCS
Method: as §1

Activin AB = target: T3, Activin AB (UniProt P08476 311-426; P09529 293-407)
T3 construct: the two chains follow from the usual meaning of Activin AB
T3 sequence (looked up) 1: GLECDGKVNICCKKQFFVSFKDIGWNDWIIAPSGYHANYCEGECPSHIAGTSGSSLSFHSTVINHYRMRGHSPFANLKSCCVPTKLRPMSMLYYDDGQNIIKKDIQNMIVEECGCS
T3 sequence (looked up) 2: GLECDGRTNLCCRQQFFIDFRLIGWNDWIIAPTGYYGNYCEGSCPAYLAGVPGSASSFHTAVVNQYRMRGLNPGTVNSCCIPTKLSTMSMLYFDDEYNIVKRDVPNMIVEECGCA
Method: as §1

Activin AC = target: T4, Activin AC (UniProt P08476 311-426; P55103 237-352)
T4 construct: the two chains follow from the usual meaning of Activin AC
T4 sequence (looked up) 1: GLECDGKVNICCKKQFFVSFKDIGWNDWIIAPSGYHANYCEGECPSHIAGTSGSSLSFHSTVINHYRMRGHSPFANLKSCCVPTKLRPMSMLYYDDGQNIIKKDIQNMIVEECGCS
T4 sequence (looked up) 2: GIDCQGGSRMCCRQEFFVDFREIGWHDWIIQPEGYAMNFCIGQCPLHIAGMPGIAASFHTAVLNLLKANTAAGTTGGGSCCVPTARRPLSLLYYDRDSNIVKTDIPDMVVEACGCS
Method: as §1

TGF-beta1 = TGF-beta1 (UniProt P01137 279-390)
Method: as §1

BMP4 = target: T5, BMP4 (UniProt P12644 293-408)
T5 sequence (looked up): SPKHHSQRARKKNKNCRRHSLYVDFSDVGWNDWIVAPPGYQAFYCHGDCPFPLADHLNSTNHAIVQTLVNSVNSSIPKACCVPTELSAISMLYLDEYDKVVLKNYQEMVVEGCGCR
Method: as §1

BMP9 = target: T6, BMP9 (UniProt Q9UK05 320-429)
T6 sequence (looked up): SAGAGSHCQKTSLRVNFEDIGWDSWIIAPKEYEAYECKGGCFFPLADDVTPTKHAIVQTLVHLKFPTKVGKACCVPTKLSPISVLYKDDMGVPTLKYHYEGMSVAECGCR
Method: as §1

BMP10 = target: T7, BMP10 (UniProt O95393 317-424)
T7 sequence (looked up): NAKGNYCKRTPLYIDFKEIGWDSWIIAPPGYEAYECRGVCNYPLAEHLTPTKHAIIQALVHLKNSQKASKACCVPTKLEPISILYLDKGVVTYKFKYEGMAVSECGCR
Method: as §1

TGF-beta1, sequence (P01137 279-390 limits assumed): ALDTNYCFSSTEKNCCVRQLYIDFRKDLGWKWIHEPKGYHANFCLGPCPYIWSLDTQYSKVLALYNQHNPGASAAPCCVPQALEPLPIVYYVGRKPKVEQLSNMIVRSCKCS

B1: anti-myostatin neutralizing monoclonal antibody 12A5-5 (antibody, V domains shown)
VH: EVQLVESGGGLVQPGGSLRLSCAASGFTFSRYWMNWVRQAPGKGLEWVAQIRLKSDNYATHYAESVKGRFTISRDNAKNSLYLQMNSLRAEDTAVYYCTEGLDYWGQGTTVTVSS
VL: DIQMTQSPSSLSASVGDRVTITCKASQDINKYVAWYQQKPGKAPKLLIYYTSWLQPGVPSRFSGSGSGTDFTFTISSLQPEDIATYYCLQYDNLLYTFGQGTKLEIK
notes: in the KinExA assay it was detected with a goat anti-human-Fc antibody, so it carries a human Fc; also called Mab 12A5-5; MAb 12A5-5
B1: no binding (tested: Ten nanomolar of each of the ligands) (GDF3); no binding (tested: Ten nanomolar of each of the ligands) (Activin A); no binding (tested: Ten nanomolar of each of the ligands) (Activin AB). B1: no binding (tested: Ten nanomolar of each of the ligands) (Activin AC); no binding (tested: Ten nanomolar of each of the ligands) (TGF-beta1); no binding (tested: Ten nanomolar of each of the ligands) (BMP4). B1: no binding (tested: Ten nanomolar of each of the ligands) (BMP9); no binding (tested: Ten nanomolar of each of the ligands) (BMP10).
